This is an account of results in a protein production outcome set (Wang et al. 2014).

This series in a line: label from the status in PepcDB records.
As to “MKKIGILTSGGDCGGLNAVIKGAALMALNKGLELYVIPNGYAGLYNLLNQDRLVRLDEARLDQFQASFAGSEAGHSRVKIKAISNPDKYNRIKVGMKKFDLDALIISGGDDSGSVMIDLNHNGIQCIHCPKTMDLDLQTYSVGGDSTINRIAQFVEDLKTTGRTHNRVLVTEVFGRYAGHTAFRSGVAAEADCILIPEIPVDWDVVYEHIVERFTRRIRQSDVHSGTYTIVVAEGMKNADGTDIVDESAGIDAFGHKKLAGAGKYVCQEIKKRFKTDPRMPQFMKDTGMFVEGIYEIPEVREVHPGHLVRAGHSSAYDINFGFEAGAAAVLLLLEGKTGVTISKVKGRKIEYIEASKAIEQRYVDLDQVAMYESIGTCFGRTPAAYEPILREVDGVYERIY”, the protein production result is “failed”.
To “MKKIHLNKWKHKTSLYLMLFCLSLPLALTPLSVSATEKETESEQTAPTSQKDASETTSETQTVESSTNDQNQNNSTISLPESSSTTSLAPSESLTSDSKKLAQKEEVVASTTVAEPKAAASSTISVPDPNLKQTILSTLGLATTAELTQTDMDKLTNLTLNSVDIYSLVGLEHATNLSSIYINVNNKITDFTPLESLTKLTFVTLQTSSLTSDNFPNLTASQGLTNLSIGGTSVDNSVLAKIVNLKALVRLYMDSNMNITNIEPLKVLPNLKSLSVQFCGITDFTVIKDFPIMSDLAAFGQNTGRNDPPTTVTRSSLKYNEDEQSVYIPFSMMPNRMTNFDGYIPPFSTSNSASNTYFDFNGTQLPASRLQIDDNGITINSVSPEEYQGIKSFEYNARLNNPAGTYAVPDGYTFYAISSGTYLHQFDVVDDGAPVTVKYQDENGQELAPSELLNGYVGATYNSKELSFQGYSLIKVDGDATGKFTDSPQTVTYIYQKNAKLLGQVTVKYIDTDGKALFGDVIQTGNIGETYHTEKKELTGYTFKNIIGNASGQYTNSPQTVTYVYEKNANPNKPEEVIPDSSDKNNVNPDSRENETTKGSKTVKDKESVVTSKEKNLPETGDKEQGMKKITLFGSFLLILGSLVLFIRFRKVD” belongs “failed”.
To “MKKIIGLLFIVSCCILLSPTIKVQADTVPLPAPIIEAFPVEAIAEAIAEELDKDSVNDIITQEDLDTITILPFPGLNLTGEDLNVLNNEVFTNATELAIWSNNIGEMPDLSESLPALETIKASDANITQFPNANYPNLTTVDFSKNNFGINIPEFIGMEKLVSINMEQAELSGYIAKDIWMNMPNLETLLLRDNHLISIPEDIFLTGQIRNRSFDGQTATYPPRTIKQGENLDVFVPFIYQALDFIAPAPGNEMIINDNGEFLYKPVYPSYTGSYMYTIETAGLEPGEHLLEISLNYNGSEYLGWYDFPVTITE” belongs “failed”; to “MKKILGTLLAVLFSFMAINDSAAQNTVLRFNKDGKFKIVQFTDVHFKYGNPASDVALERIGEVLDAEHPDLVIFTGDVVYSSPADKGMLQVLGQVERRHLPFVVTFGNHDNEQGKTRAELYDLIRGVAGNLLPDRGASPSPDYILTMKSSADASKDAALLYCMDSHSYSSLKDVDGYAWLTFGQVSWYRAQSAAYTARNGGKPYPALAFFHIPLPEYNEAAANENAILRGTRMEKACAPQLNTGMFAAMKEAGDVMGVFVGHDHDNDYAVMWKNILLAYGRFTGGNTEYNHLPNGARVIVLNEGTRTFETWIRQKGGVVDSTSYPSDYVKDDWRKR”, “failed”.
To “MKKISILFIFSLILGLFVSEVSAAGPRLKKRPKHVVLVAFDGLSAVAIRNHPMPNFNRLMKEGASTLNNRSILPSSSAPNWASMFTGVGPELHGYTTWGSKTPEIPPFITNQYGRFPGLYGLLRDTHPKAELGYIYEWDGMKYLVDSLAINHFVHAPQTKDHPKGATQFAVNYLKEKKPMYCAVIFEYPDHTGHTYKWESKEYYEKLDELDGYLGEIVAAIEEAGMMDETVIILTADHGGIGTNHGGKTLNEMETPLVFYGKGVKKNYKITESTMVIDVPATEAWLLGVEPHEAWLGNPVTTAFFTK” belongs “failed”.
